The numbers were not newly measured in US20230212279A1, “TREATMENT AND PREVENTION OF DISEASE CAUSED BY TYPE IV COLLAGEN DYSFUNCTION” (Singapore Health Services PTE, LTD., priority 2020, published 2023), which cites them from elsewhere.

The target of this series is T1, IL-11Rα (Homo sapiens, UniProt Q14626).
T1 sequence (Q14626 23-422): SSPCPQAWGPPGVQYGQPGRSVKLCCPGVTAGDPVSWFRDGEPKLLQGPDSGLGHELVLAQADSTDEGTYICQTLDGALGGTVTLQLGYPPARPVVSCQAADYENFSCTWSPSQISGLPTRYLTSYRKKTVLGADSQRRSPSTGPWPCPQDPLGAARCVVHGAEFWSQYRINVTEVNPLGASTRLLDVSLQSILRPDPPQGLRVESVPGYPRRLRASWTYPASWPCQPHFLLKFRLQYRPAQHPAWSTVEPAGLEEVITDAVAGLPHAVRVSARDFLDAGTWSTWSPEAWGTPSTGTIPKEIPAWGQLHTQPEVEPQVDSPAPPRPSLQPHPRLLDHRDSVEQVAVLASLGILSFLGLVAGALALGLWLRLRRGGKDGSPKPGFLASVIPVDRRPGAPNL
The conditions noted are these: IL-11 binding to IL-11Rα alone, low affinity; cited from earlier work.

B1: IL-11: pleiotropic cytokine, member of the IL-6 family of cytokines (protein)
chain: PGPPAGSPRVSSDPRADLDSAVLLTRSLLADTRQLAAQMRDKFPADGDHSLDSLPTLAMSAGTLGSLQLPGVLTRLRVDLMSYLRHVQWLRRAGGPSLKTLEPELGALQARLERLLRRLQLLMSRLALPQAAPDQPVIPLGPPASAWGSIRAAHAILGGLHLTLDWAVRGLLLLKTRL
For the molecule B1, the Kd was approximately 22 nM.
